Data taken from patent EP2386565A2, “Compounds and methods to inhibit or augment an inflammatory response” (Cambridge Enterprise Ltd., priority 1999, dated 2000).
Where “and” joins values, the source holds several entries; their conditions need not be identical. Identical values can stand only once.

Assays:
[1] = target: chemokine receptors on THP-1 cells; experiment: binding to chemokine receptors on THP-1 cells; given as association constant
[2] = target: CCR5 (human) (UniProt P51681); experiment: 12-point Scatchard analysis, 0.03 nM 125I-RANTES on HOS CCR5 cells and parental line, 4°C, 2 hours
CCR5 (human), sequence (P51681 whole entry): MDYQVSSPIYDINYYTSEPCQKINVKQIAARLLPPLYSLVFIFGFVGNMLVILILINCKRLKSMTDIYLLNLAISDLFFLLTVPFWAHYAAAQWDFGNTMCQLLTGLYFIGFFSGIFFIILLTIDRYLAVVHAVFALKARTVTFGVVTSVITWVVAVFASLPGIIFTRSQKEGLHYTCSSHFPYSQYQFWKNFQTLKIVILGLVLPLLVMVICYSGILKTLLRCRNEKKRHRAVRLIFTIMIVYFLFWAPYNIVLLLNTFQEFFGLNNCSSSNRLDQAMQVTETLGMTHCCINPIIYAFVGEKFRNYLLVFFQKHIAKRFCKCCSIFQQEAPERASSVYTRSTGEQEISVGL

[3] = target: T1, Duffy Antigen Receptor for Chemokines (DARC) (human) (UniProt Q16570); experiment: footnote c of Table 6; given as affinity constant
T1 sequence (looked up): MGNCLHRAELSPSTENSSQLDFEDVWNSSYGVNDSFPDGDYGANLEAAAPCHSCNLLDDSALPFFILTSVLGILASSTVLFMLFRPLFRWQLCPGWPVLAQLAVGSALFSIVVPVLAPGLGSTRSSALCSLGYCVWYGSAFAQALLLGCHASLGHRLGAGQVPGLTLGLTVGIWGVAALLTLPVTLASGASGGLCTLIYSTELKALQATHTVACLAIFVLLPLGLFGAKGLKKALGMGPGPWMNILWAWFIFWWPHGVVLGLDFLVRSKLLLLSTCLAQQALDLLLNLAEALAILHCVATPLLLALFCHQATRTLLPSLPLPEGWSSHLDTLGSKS

[4] = target: chemokine receptors on THP-1 cells; experiment: 100 µM biotinylated peptide on THP-1 cells, alone minus excess unlabeled peptide
[5] = target: chemokine receptors on the surface of Jurkat cells; experiment: 100 µM biotinylated peptide on Jurkat cells, alone minus excess unlabeled peptide
[6] = target: chemokine receptors on the surface of Jurkat cells; experiment: 100 µM biotinylated peptide on Jurkat cells (10^6 per reaction), 4°C, streptavidin-peroxidase/TMB
[7] = target: chemokine receptors on THP-1 cells; experiment: 100 µM biotinylated peptide on THP-1 cells with 100-fold excess of the same unlabeled peptide
[8] = target: chemokine receptors on the surface of Jurkat cells; experiment: 100 µM biotinylated peptide on Jurkat cells with 100-fold excess of the same unlabeled peptide
[9] = target: chemokine receptors on THP-1 cells; experiment: 100 µM biotinylated peptide on THP-1 cells (4 x 10^5 per reaction), 4°C, streptavidin-peroxidase/TMB
[10] = target: chemokine receptors on the surface of Jurkat cells; experiment: biotinylated peptide on cells, streptavidin-peroxidase

Substance | ΔA450nm, specific binding [4] | ΔA450nm, specific binding [5] | ΔA450nm, alone [6] | ΔA450nm, +100-fold excess unlabeled peptide [7] | ΔA450nm, +100-fold excess unlabeled peptide [8] | ΔA450nm, alone [9] | other results
KQK (peptide) |  |  |  |  |  |  | Kd [1]: 500 nM and 1000 nM
RANTES (from UniProt P13236 24-92) (ligand) |  |  |  |  |  |  | Kd [2]: 1 nM
WVQ (peptide) |  |  |  |  |  |  | Kd [3]: 2000 nM
gp120:V3(BaL) (peptide) | 0.535 A450 | < 0 A450 | 0.167 A450 | 0.107 A450 | 0.168 A450 | 0.642 A450 | 
gp120:V3(IIIb) (peptide) | 0.137 A450 | 0.689 A450 | 0.878 A450 | 0.131 A450 | 0.189 A450 | 0.268 A450 | fold specific binding to Jurkat cells against THP-1 cells [10]: 5 fold
